B1: Polynucleotide phosphorylase/polyadenylase (Cthe_0418) (enzyme, UniProt A3DCH7 1-700, looked up)
chain: MYKTFSMELAGRTLTIETGKLAQLANGSVLVRYGDTVVLSTATASATPREGVDFFPLSVDYEERLYAVGKIPGGFIKREGKPSEKAILTARVIDRPLRPLFPKDLRNDVAIVNTVLSVDQDNSPELAALLGSSIAVSISDIPFNGPVGAVILGLIDGEVIINPTEKQKEISQMYVTLAGTRNKIVMIEAGANEVPDEVMLDAIKKGHEEIKKIVDFIDGIVKEVGKPKFEYESAEVPEEIFNAVREYAYDKMREAVLAVDKQVRDKNIDDLTKEITEHFAEVFPEMEPAIKEAIYKLEKKVVREYILEEGRRVDGRRLDEIRPLSAEVGLLPRVHGSGLFTRGQTQVLSSVTLGAMGDVQILDGIDTEETKRYMHHYNFPGFSVGEAKSSRGPGRREIGHGALAERALEPVIPSEEEFPYTIRVVSEVLMSNGSTSQGSVCGSTLALMDAGVPIKKPVAGISAGLVVDENNPDRFVTFMDIQGIEDFFGDMDFKVAGTKDGITAIQVDIKIDGLTEEIIKQAFELTRKGRLYIIDNVLLKAIPEPRKQMSKYAPKIISTTINPDKIREVIGPGGKMINKIIDETGVKIDINDDGRVYIFSSDIQAGKRARSMIEAIAKDIEPGQVFLGRVIRVTSFGAFVEFLPGKEGLVHISKLDKKRVERVEDIVRVGDQILVKVIEIDKQGRVNLSRKDAMEDEWDK
notes: polynucleotide phosphorylase/polyadenylase, Clostridium thermocellum ATCC 27405, locus Cthe_0418, 77 kDa; also called Polyribonucleotide phosphorylase; PNPase; source: endogenous, C. thermocellum membrane fraction solubilised with 1.0% DDM
B2: ABC transporter related protein (Cthe_3148) (natural protein, UniProt A3DK64 1-632, looked up)
chain: MENNVKKNKKSIVLRLFKDILEFYPVMLPVAIVCILFNATISSIPAVFMQNVIAIVENNWRTGDWNAVGGRILSLVAVLVAFYTLSILSGIAYNQMMAIITQGTLKKFRCKMFARMQTLPIKYVDTHNHGDIMSVYTNDIDTLRQMISQSFPQLLLSGITVLTVFSIMVYFCLWLTIIVLIGVIAMFFVTRRVGGGSAKYFIRQQKALGRVEGFIEEMMNGQKVIKVFCREEEVKKDFDKLNEALFDDARKANRYANILAPILNNIGNVLYVFVAITGGVLLVTNAPNVSLSGLSMGISIVVPFLNMTKQFVGNINQVSQQINAVIMGLAGAQRIYELIDEEPEQDDGYVTLVNVREENGQLIECEERTGIWAWKHPHSSDGSVTYTKLMGDVRLFNVDFEYEPGKSVLHDISLYAKPGQKVAFVGATGAGKTTITNLLNRFYDIADGKIRYDGININKIKKSDLRRAVGIVLQDTNLFTGTVMDNIRYGKLDATDEECIAAAKLAGADDFIRRLPDGYYTMLTENGANLSQGQRQLISIARVAVADPPVMILDEATSSIDTRTEAIVQRGMDALMEGRTVFVIAHRLSTVKNANVIIVLDHGRIIERGTHEELIAQKGQYYQLYTGAFELE
notes: ABC transporter related protein with fused ABC and IM domains, Clostridium thermocellum ATCC 27405, locus Cthe_3148, 70 kDa; also called ABC transporter with fused ABC and IM domains; Class 1 ABC transporter; source: endogenous, C. thermocellum membrane fraction solubilised with 1.0% DDM
B3: Ornithine carbamoyltransferase (Cthe_1869) (enzyme, UniProt A3DGL1 1-307, looked up)
chain: MEHLISLHDLTVEDFESIFKLAEKLKRQQKEGIPHHLLKGKTLGMIFTKSSTRTRVSFEVGMYQLGGYPLFLSANDIQLGRGETIYDTAQVLSRYVDGIMIRTFAQSDVEDLARYGNVPVINGLTDLMHPCQILADLFTIYEHKGTLKGLKLAYVGDGNNVANSLLHGCAKVGMDIAVASPKGYECDSRIVEEAKEDAKASGANILLTEDPEEAIKDADVVYTDTWVSMGQESEKEERIKVFMPYQVNNTLFSKAHEDAIFLHCLPAYRGYEVTEDVIDGSQSVIFDEAENRLHVQKAIMALLMGNK
notes: ornithine carbamoyltransferase, Clostridium thermocellum ATCC 27405, locus Cthe_1869, 34 kDa; also called OTCase; spot 27; source: endogenous, C. thermocellum membrane fraction solubilised with 1.0% DDM
B4: Carboxyl transferase (Cthe_0699) (enzyme, UniProt A3DDA5 1-516, looked up)
chain: MDKVDKIGLLREKLAQVEQGGGAEKIAKQHDAGKMTARERIQALFDENSFVEIDTFVETRSIDFDMQKKKVPGDGVVTGYGSIDGRLVFVAAQDFTVIGGSLGEMHAAKITKVMDMAMKMGAPFISINDSGGARIEEGIDALKGFGDIFYRNTLASGVIPQISVIMGPCAGGAVYSPAITDFIFMVDKTSQMFITGPQVIKSVTGEDVTFEKLGGAETHNSISGVAHFRSSSEKECIEQIKKLISYLPDNNLSDVPIVPTQDDINRITDNLVDIIPQDSNKPYDMMEIITSVVDNGDFFEIQKDFAKNIIIGFGRMNGGTVGIVANQPKVAAGVLDVNSSDKAARFVRFCDAFNIPIITFTDVPGYLPGVGQEHSGVIRHGAKLLYAFSEATVPKINVIVRKAYGGAYIAMNSKHLGADMVFAWPSAEIAVMGPEGAANIIFKKDIAAADDPMETRKRLIEEYREKFSNPYVAASRGYVDDVIDPATTRIRLISALEMLASKRENRPAKKHGNIPL
notes: carboxyl transferase with two carboxyl transferase domains, Clostridium thermocellum ATCC 27405, locus Cthe_0699, 56 kDa; also called spots 4 and 15; source: endogenous, C. thermocellum membrane fraction solubilised with 1.0% DDM
B5: Ferritin and Dps (Cthe_0016) (natural protein, UniProt A3DBC9 1-159, looked up)
chain: MSKLYDNLNEQMNFELESAYIYATMSAYLDSLNMKGMTHFFDEQVKEEMEHAGKIKKFLQDTGYGIKYRPLNPGDGKFDSIEDVFKKALAHEKTVTSRINDLVKQAREEGDQRVLNLLAWFVDEQIEEENMFGVLVERLERINGHWNGLYILDKELGER
notes: ferritin (annotated Ferritin and Dps), Clostridium thermocellum ATCC 27405, locus Cthe_0016, 18.6 kDa; also called spots 6 and 7; source: endogenous, C. thermocellum membrane fraction solubilised with 1.0% DDM; copies: 24

Target: the molecule itself
Test: native gel or EMSA; two-dimensional blue native PAGE (4-15% gel) then SDS-PAGE of the membrane fraction solubilised at 4°C in 1.0% (w/v) DDM; about 40 μg protein; spots identified by MALDI-TOF/TOF; complex mass estimated from BN-PAGE markers

B1 and B2 are the same in “stoichiometry N” value: 2 for the first, 2 for the second.

Going from B3 to B4, the “stoichiometry N” value rises from 3 to 4.

B5 was tested, and the “stoichiometry N” value was 24.
